Test results: paper PMC8561747 (Cell host & microbe, 2021)

Target: the molecule itself
Experiment: SEC

B1: FMNL1_(1–385) (domain or fragment, human, UniProt O95466 1-385, looked up)
chain: MGNAAGSAEQPAGPAAPPPKQPAPPKQPMPAAGELEERFNRALNCMNLPPDKVQLLSQYDNEKKWELICDQERFQVKNPPAAYIQKLKSYVDTGGVSRKVAADWMSNLGFKRRVQESTQVLRELETSLRTNHIGWVQEFLNEENRGLDVLLEYLAFAQCSVTYDMESTDNGASNSEKNKPLEQSVEDLSKGPPSSVPKSRHLTIKLTPAHSRKALRNSRIVSQKDDVHVCIMCLRAIMNYQSGFSLVMNHPACVNEIALSLNNKNPRTKALVLELLAAVCLVRGGHDIILAAFDNFKEVCGEQHRFEKLMEYFRNEDSNIDFMVACMQFINIVVHSVENMNFRVFLQYEFTHLGLDLYLERLRLTESDKLQVQIQAYLDNIFDVG
Q: Does B1 bind?
A: Result: binds
